From PMC8499471

Columns and labels:
[1] = target: Flag-Kr-h1^S154D (Locusta migratoria)
[2] = target: Flag-Kr-h1^S154D (Locusta migratoria); remark: listed apart in the source
[3] = target: Flag-Kr-h1 (Krüppel-homolog 1 of Locusta migratoria, wildtype, methoprene-exposed) (Locusta migratoria)

Substance | RL36 reporter activity (dual luciferase, pGL4.10-4×RL36 -1647 to -1632) in S2 cells, co-expression of Flag-CBP and Flag-Kr-h1^S154D (fold increase) [1] | E93 reporter activity (dual luciferase, pGL4.10-4×E93 -623 to -606) in S2 cells, co-expression of Flag-CtBP and Flag-Kr-h1^S154D [2] [% reduction] | E93 reporter activity (dual luciferase, pGL4.10-4×E93 -623 to -606) in S2 cells with 10 uM methoprene, co-expression of Flag-CtBP and Flag-Kr-h1 [3] [% reduction]
Flag-CBP (CREB-binding protein of Locusta migratoria) (natural protein) | 1.7 |  | 
Flag-CtBP (C-terminal binding protein of Locusta migratoria) (natural protein) |  | 50 | 47
